Experimental data: US20060188440A1 (FOX CHASE CANCER CENTER, published 2006)
Values belong to the binder of their own block, whether it stands above or below them.

Assays:
[1] = molecular target: T1, MISIIR-Fc ECD fusion protein (human, UniProt Q16671 18-149); experiment: assay not named in the sentence (ELISA / SPR of Example 1)
T1 construct: extracellular domain; Two orientations were made (ECD 5' or 3' of Fc); The secretion signal from the vector is not part of the secreted protein; also called MISIIR-Fc fusion protein; MISIIR ECD; not shown: tobacco etch virus cleavage site between MISIIR and Fc; human IgG1 Fc domain; C-terminal c-myc tag and 6xHis tag from the pSecTag2/Hygro vector

[2] = molecular target: T1, MISIIR-Fc ECD fusion protein; experiment: SPR (BIAcore 1000), MISIIR-Fc ECD on CM5 chip (600 RU), serially diluted scFv
Method: (§1) Surface plasmon resonance (SPR) technology was used to determine the binding of the anti-MISIIR molecules to MISIIR ECD. The SPR response reflects a change in the mass concentration as molecules bind or dissociate from an antigen immobilized on a sensor chip. These studies were performed on a BIAcore 1000 instrument. The MISIIR-Fc ECD fusion protein target antigen was coated on a CM5 chip at a concentration of 5,000 resonance units (RU). The anti-MISIIR antibody molecules were then flowed over the chip and the difference in the response units (RU) between the start point and the end was determined. A negative control protein (Fc) was coated on a chip at 4,800 RU and was used to rule out binding to the Fc portion of the MISIIR-Fc fusion protein. The association and dissociation rates, and the affinity of each molecule for MISIIR ECD were determined by passing serially diluted samples over an MISIIR-Fc ECD coated chip with a lower concentration of target antigen (600 RU) as per the BIAcore manufacturer's instructions. The evaluation of the data was done using BIAEvaluation 3.0 software.

[3] = molecular target: T1, MISIIR-Fc ECD fusion protein; experiment: SPR (BIAcore 1000), chip coated with MISIIR (MISIIR-Fc ECD fusion protein), scFv-Fc flowed over; analyte concentration not given; time unit not given
Method: as §1

[4] = molecular target: T2, MISIIR expressed on IGROV-1 cells (UniProt Q16671 18-573, limits assumed); experiment: flow cytometry (FACS) on IGROV-1 cells, detection with fluorescein-conjugated goat anti-human IgG; concentration not given
T2 construct: whole, on cells; also called MIS type II receptor
T2 sequence (looked up): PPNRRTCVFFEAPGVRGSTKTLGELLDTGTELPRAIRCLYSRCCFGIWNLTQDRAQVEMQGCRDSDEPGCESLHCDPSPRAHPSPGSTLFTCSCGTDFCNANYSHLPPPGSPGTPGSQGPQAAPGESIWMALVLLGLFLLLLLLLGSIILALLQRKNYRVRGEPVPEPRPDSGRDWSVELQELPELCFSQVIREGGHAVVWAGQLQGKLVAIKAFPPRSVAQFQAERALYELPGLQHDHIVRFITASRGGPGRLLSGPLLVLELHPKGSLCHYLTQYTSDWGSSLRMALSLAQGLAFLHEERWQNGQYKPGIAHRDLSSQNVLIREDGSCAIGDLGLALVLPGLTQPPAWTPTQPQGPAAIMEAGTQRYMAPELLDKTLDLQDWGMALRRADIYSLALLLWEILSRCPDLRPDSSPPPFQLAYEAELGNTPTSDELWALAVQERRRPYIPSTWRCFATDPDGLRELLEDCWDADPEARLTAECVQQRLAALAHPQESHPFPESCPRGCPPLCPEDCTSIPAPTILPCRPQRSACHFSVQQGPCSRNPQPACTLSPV
Method: The binding of the antibodies was also tested in a standard fluorescence-activated cell sorter (FACS) assay.

binding result [1]: binds
B1: GY4 scFv antibody molecule (scFv)
scFv: MAQITLKESGPTLVKPTQTLTLTCTVSGFSLSNARMGVSWIRQPPGKALEWLALIYRDNDKRYNPSLKSRLTITKDTSKNQVVLTMSNMDPVDTATYYCAHSLVVPAANPFDYWGQGTLVTVSSSASGAELGGGGSGGGGSGGGGSTSQAVLTQPSSLSASPGASASLTCTLRSGINVGTYRIYWYQQKPGSPPQYLLRYKSDSDKQKGSGVPSRFSGSKDASANAGILLISGLQSEDEADYYCMIWHTSAYVFGTGTKVTVLGSS

Kd [2]: 300 nM
B2: anti-MISIIR scFv of clone #7 (scFv)
scFv: MAQVQLVQSGTEVKRPGASVKISCRATGYTFSDYGISWMRQAPGQGLEWMGWISAYNGNTNYAQKLQGRVTMTTDTSTSTAYMELRSLRYDDTAVYYCARDGRRGSGIYWGVYYYNGMDVWGQGTTVTVSSGGGGSGGGGSGGGGSQPVLTQPPSASGTPGQRVTISCSGSRSNIGRNTVNWYQQVPGMAPKLLIYSNNQRPSGVPDRFSGSKSGTSASLAISGLQSEDEADYYCAAWDDSLNGVVFGGGTKLTVLGQPKAAP
notes: Expressed from pCYN (pUC119mychis) with myc and His tags

binding result [1]: binds
B3: scFv antibody molecule of clone #29 (scFv)
scFv: MAQVQLVQSGGGLVQPGGSLRLSCAASGFTVSSNYMSWVRQAPGKGLEWVSAISGSGGSTYYADSVKGRFTISRDNSKNTLYLQMNSLRAEDTAVYYCATRPSRGSSGWYGGDYWGQGTLVTVSSGGGGSGGGGSGGGGSSYELTQPPSTSGTPGQRVTISCSGSTSNIATNNVNWYQFLPGTAPKLLMYRNDQRPAGVPDRFSGSKSGTSASLAISGLQPEDEADYYCAAWDDSLGGEVFGTGTKVNVLGQPKAAPSAA

Kd [2]: 90 nM
B4: anti-MISIIR scFv of clone #17 (scFv)
scFv: MAQVTLKESGPTLVKPTQTLTLTCTFSGFSLTTSGVGVGWIRQAPGKAPEWLALIDWDDDKYYSTSLKTRLTISKDTSKNQVVLTMTNMDPVDTATYYCARDSYYGSGSHFDFWGQGTLVTVSSGGGGSGGGGSGGGGSSYELTQPPSVSVSPGQTATITCSGHDLRNKYAHWYQQKPGQSPVLVVYQDAKRPSGIPERFSGSNSGNTATLTISGTQAMDEADYYCQTWDRSTVVFGGGTKLTVLGQPKAAPSAA
notes: Expressed from pCYN (pUC119mychis) in E. coli and purified by IMAC; It carries C-terminal myc and His tags

binding result [3]: binds
binding result [4]: binds
B5: scFv-Fc of clone #7 (Fc fusion)
scFv: QVQLVQSGTEVKRPGASVKISCRATGYTFSDYGISWMRQAPGQGLEWMGWISAYNGNTNYAQKLQGRVTMTTDTSTSTAYMELRSLRYDDTAVYYCARDGRRGSGIYWGVYYYNGMDVWGQGTTVTVSSGGGGSGGGGSGGGGSQPVLTQPPSASGTPGQRVTISCSGSRSNIGRNTVNWYQQVPGMAPKLLIYSNNQRPSGVPDRFSGSKSGTSASLAISGLQSEDEADYYCAAWDDSLNGVVFGGGTKLTVL
notes: Bivalent fusion secreted from mammalian cells; The F105 VH / pelB leader is not part of the secreted protein; Copies '2' follows from 'bivalent'; also called sFv-IgG fusion protein; not shown: Human IgG1 hinge-CH2-CH3 of the hinge stuffer vector, and the junction to it

binding result [1]: binds
B6: M9 scFv antibody molecule (scFv)
scFv: MAQVQLVQSGAEVKKPGASVKVSCKASGYTFTSYDINWVRQATGQGLEWMGWMNPNSGNTGYAQKFQGRVTMTRNTSTNTAYMELTSLTSEDTAVYYCARGSPSPMNVWGQGTTVTVSSGGGGSGGGGSGGGGSQPVLTQPHSVSESPGKTVTISCTRSSGSIANDYVQWFQQRPGSAPTIVIYEDYRRPSGVPDRFSGSIDSSSNSASLTISGLKTEDEADYYCQSYDSSNPYVVFGGGTKLTVLGQPKAAPSAAA
